# From paper PMC5234120, “Age-related macular degeneration associated polymorphism rs10490924 in ARMS2 results in deficiency of a complement activator” (Journal of Neuroinflammation, 2017)
# Tests used:
# properdin [1] = molecular target: T1, properdin (human, UniProt P27918 28-469); assay: BLI; BLITZ system; His-tagged ARMS2 loaded on Ni2+ NTA biosensors in PBS with 0.1% gelatin; properdin 70 to 1800 nM; 1:1 model; details: both partners purified
# T1 construct: properdin (complement factor P), human; the oligomeric state of the purified protein was not measured here; also called purified properdin; source: bought: Complement Technologies (CompTech), purified; bought: TECOmedical GmbH (peptide ELISA); endogenous, normal human serum (NHS)
# properdin [2] = molecular target: T1, properdin; assay: ELISA; ARMS2 peptides 1, 2, 3 (each 500 nM) coated on the plate; 2 uM properdin (TECOmedical) in PBS; detected with monoclonal properdin antibody; details: both partners purified
# T1 sequence (P27918 28-469): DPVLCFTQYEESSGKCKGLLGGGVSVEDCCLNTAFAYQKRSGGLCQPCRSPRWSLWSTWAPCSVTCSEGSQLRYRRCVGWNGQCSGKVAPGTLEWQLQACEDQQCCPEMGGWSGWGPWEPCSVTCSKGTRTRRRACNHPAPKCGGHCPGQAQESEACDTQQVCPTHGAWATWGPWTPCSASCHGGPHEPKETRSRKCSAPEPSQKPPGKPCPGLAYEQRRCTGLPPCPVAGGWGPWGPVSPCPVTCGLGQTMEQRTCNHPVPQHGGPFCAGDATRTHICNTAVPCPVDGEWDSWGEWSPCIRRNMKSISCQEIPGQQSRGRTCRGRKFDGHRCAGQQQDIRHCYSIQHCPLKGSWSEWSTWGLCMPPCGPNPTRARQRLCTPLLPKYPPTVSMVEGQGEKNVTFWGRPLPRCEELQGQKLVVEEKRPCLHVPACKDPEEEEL
Kd (properdin [1]),binding result (properdin [2]),Binder
500 nM,–,"recombinant ARMS2 (age-related maculopathy susceptibility 2) (natural protein, human, UniProt P0C7Q2 1-107, looked up, ARMS2, human, codon usage optimized full length cDNA; Glycosylated in P. pastoris (17 and 15 kDa bands); also called His-tagged ARMS2; rARMS2) MLRLYPGPMVTEAEGKGGPEMASLSSSVVPVSFISTLRESVLDPGVGGEGASDKQRSKLSLSHSMIPAAKIHTELCLPAFFSPAGTQRRFQQPQHHLTLSIIHTAAR"
–,binds,"IHTELCLPAFFSPAGTQRRFQQPQHHLTLSIIHTAAR (ARMS2, human, amino acids 71 to 107; also called C-terminal peptide 3 of ARMS2; source: peptide generated by Jerini Peptide Biotechnologies) [ARMS2 peptide 3 (amino acids 71 to 107)]"
